The data set addresses T1, TFB2M T313E (human, UniProt Q9H5Q4 21-396, T313E).
T1 sequence: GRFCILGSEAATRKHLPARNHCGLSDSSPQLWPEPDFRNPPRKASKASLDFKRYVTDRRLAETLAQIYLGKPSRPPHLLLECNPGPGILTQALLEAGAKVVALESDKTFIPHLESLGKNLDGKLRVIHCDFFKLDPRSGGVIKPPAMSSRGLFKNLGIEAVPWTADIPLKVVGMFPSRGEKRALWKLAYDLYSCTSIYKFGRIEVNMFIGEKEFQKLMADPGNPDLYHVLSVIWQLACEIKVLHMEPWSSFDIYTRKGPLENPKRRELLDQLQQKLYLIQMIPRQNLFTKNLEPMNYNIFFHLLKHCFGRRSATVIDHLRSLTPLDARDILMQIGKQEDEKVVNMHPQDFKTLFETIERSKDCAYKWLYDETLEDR
Nature of the data set: fluorescence anisotropy. (In general: In fluorescence polarisation assays a small probe gives low polarisation when free and higher when bound to something large.)

What is called Kd is the equilibrium constant for the complex coming apart. Read a low Kd as higher affinity.

B1: LSP (-17 to +19), fluorescein (dsDNA)
DNA 1: AAAAGTGCATACCGCCAAAAGATAAAATTTGAAATC
DNA 2: GATTTCAAATTTTATCTTTTGGCGGTATGCACTTTT
B1 registered a Kd above 150 nM.

For the origin of these results see paper PMC9161741.
